Experimental data taken from US6884597B1, “Method for detecting acetyltransferase and deacetylase activities and method for screening inhibitors or enhancers of these enzymes” (Medical & Biological Laboratories, Co., Ltd., priority 1998, dated 2005).

Test system: sub p53-1 and sub p53-2 peptides
Experiment: ELISA system for measuring the deacetylase activity (liquid and solid phase)
Type: biochemical, human
Details: 0 to 10 μg/ml; liquid and solid phases; depending on the concentration; FIGS. 11 and 12
Procedure: Two peptide substrates “Sub Ac p53-1” (SEQ ID NO: 17/Bio-STSRHKK(Ac)LMFKTE and “Sub Ac p53-2” (SEQ ID NO: 18/Bio-SHLKSKK (Ac) GQSTSR) in which an acetyl group was introduced into the ε amino group on the 373rd and 382nd lysine residues of human p53, were prepared by a peptide synthesizer. An amino acid in a peptide is shown by the one-letter code and “Bio” at the amino ends means biotin. K(Ac) indicates an acetylated lysine residue. Ninety percent or higher purity of the synthesized peptides was confirmed by HPLC. “Sub Ac p53-1” and “Sub Ac p53-2” were composed of amino acid residues 376 to 388 and 367 to 379, of human p53, respectively.
Two peptides substrate were dissolved in PBS to 10 μg/ml. 50 μl of each peptide solution were added to each well on a microtiter plate for ELISA, and sensitized at 4° C. overnight. […]
The synthesized peptide substrates and the recombinant deacetylase were reacted in the liquid phase, and the enzyme activity was measured by ELISA system using a microtiter plate. […] 100 μl of 1.5 N phosphate solution were added thereto to terminate the coloring reaction, and absorbance at 450 nm was measured using a microtiter plate reader. • Solid Phase Analysis System (Refer to FIG. 4) […]

Substance: recombinant HDAC1: recombinant deacetylase HDAC1/RPD3 (full length) purified from E. coli
- deacetylase activities in sub p53-1 and sub p53-2 peptides: detected
